The text below walks through data of US20200317768A1 (published 2020).

The target in test [1] is T1, cynomolgus monkey FcγRIIb extracellular domain, His-tagged (cynomolgus monkey).
T1 construct: also called cyno FcγRIIb; cynoFcγRIIb; not shown: C-terminal His-tag
T1 chain: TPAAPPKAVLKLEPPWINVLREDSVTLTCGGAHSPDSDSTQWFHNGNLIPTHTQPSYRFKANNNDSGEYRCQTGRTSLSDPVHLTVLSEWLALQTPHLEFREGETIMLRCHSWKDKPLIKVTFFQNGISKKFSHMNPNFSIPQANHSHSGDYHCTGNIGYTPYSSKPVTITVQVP
The test can be described thus: SPR (BIACORE); KD of SG1 divided by KD of variant.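 Further: relative to parent M103205H795-SG1 carrying the SG1 human heavy chain constant region.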

The target of test [2] is T2, human FcγRIIaR extracellular domain, His-tagged (human, UniProt P12318 34-217).
T2 construct: also called human FcγRIIa (type R); FcgRIIaR; not shown: C-terminal His-tag
T2 chain: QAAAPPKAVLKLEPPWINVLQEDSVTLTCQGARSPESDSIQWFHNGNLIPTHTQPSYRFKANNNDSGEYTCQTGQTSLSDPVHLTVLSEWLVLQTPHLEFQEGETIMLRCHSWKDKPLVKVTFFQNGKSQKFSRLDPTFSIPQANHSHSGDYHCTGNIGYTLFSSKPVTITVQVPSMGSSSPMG
The test can be described thus: SPR (BIACORE); KD of SG1 divided by KD of variant.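 Further: relative to parent M103205H795-SG1 carrying the SG1 human heavy chain constant region.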

B1: M103205H795-MY443/M103202L889-SK1 (antibody, human IgG1, kappa)
heavy: QVTLKESGPVLVKPTETLTLTCTVSGIDLSHDDISWVRQAPGKGLEWVGIISYAGSTYYASWAKGRLTISKDTSKNQVVLTMTNMDPVDTATYYCARGVPAYSHGGDLWGQGTLVTVSSASTKGPSVFPLAPSSKSTSGGTAALGCLVKDYFPEPVTVSWNSGALTSGVHTFPAVLQSSGLYSLSSVVTVPSSSLGTQTYICNVNHKPSNTKVDKKVEPKSCDKTHTCPPCPAEELLTGPSVFLFPPKPKDTLMISRTPEVTCVVVDVSDEDPEVKFNWYVDGVEVHNAKTKPREEQYNSTYRVVSVLTVLHQDWLNGKEYKCKVSNKALPKPIEKTISKAKGQPREPQVYTLPPSREEMTKNQVSLTCLVKGFYPSDIAVEWESNGQPENNYKTTPPVLDSDGSFFLYSKLTVDKSRWQQGNVFSCSVMHEALHNHYTQKSLSLSP
light: DIVMTQSPATLSLSPGERATLSCTSSQSVYHANWLSWFQQKPGQPPKLLIYWASTLAYGVPSRFSGSGSGTDFTLTISSLQPEDAATYYCAGGYGGGRYAFGQGTKVEIKRTVAAPSVFIFPPSDEQLKSGTASVVCLLNNFYPREAKVQWKVDNALQSGNSQESVTEQDSKDSTYSLSSTLTLSKADYEKHKVYACEVTHQGLSSPVTKSFNRGEC
notes: copies: 2 + 2
With B1, the “KD fold (SG1 = 1)” value in test [1] was found to be 1.5 fold; in test [2], 1.7 fold.

B2: M103205H795-MY459/M103202L889-SK1 (antibody, human IgG1, kappa)
heavy: QVTLKESGPVLVKPTETLTLTCTVSGIDLSHDDISWVRQAPGKGLEWVGIISYAGSTYYASWAKGRLTISKDTSKNQVVLTMTNMDPVDTATYYCARGVPAYSHGGDLWGQGTLVTVSSASTKGPSVFPLAPSSKSTSGGTAALGCLVKDYFPEPVTVSWNSGALTSGVHTFPAVLQSSGLYSLSSVVTVPSSSLGTQTYICNVNHKPSNTKVDKKVEPKSCDKTHTCPPCPDPELLTGPSVFLFPPKPKDTLMISRTPEVTCVVVDVSDEDPEVKFNWYVDGVEVHNAKTKPREEQYNSTYRVVSVLTVLHQDWLNGKEYKCKVSNKALPKPIEKTISKAKGQPREPQVYTLPPSREEMTKNQVSLTCLVKGFYPSDIAVEWESNGQPENNYKTTPPVLDSDGSFFLYSKLTVDKSRWQQGNVFSCSVMHEALHNHYTQKSLSLSP
light: DIVMTQSPATLSLSPGERATLSCTSSQSVYHANWLSWFQQKPGQPPKLLIYWASTLAYGVPSRFSGSGSGTDFTLTISSLQPEDAATYYCAGGYGGGRYAFGQGTKVEIKRTVAAPSVFIFPPSDEQLKSGTASVVCLLNNFYPREAKVQWKVDNALQSGNSQESVTEQDSKDSTYSLSSTLTLSKADYEKHKVYACEVTHQGLSSPVTKSFNRGEC
notes: copies: 2 + 2
For B2, the “KD fold (SG1 = 1)” value in test [1] was determined as 1.6 fold; in test [2], 2 fold.

B3: M103205H795-MY447/M103202L889-SK1 (antibody, human IgG1, kappa)
heavy: QVTLKESGPVLVKPTETLTLTCTVSGIDLSHDDISWVRQAPGKGLEWVGIISYAGSTYYASWAKGRLTISKDTSKNQVVLTMTNMDPVDTATYYCARGVPAYSHGGDLWGQGTLVTVSSASTKGPSVFPLAPSSKSTSGGTAALGCLVKDYFPEPVTVSWNSGALTSGVHTFPAVLQSSGLYSLSSVVTVPSSSLGTQTYICNVNHKPSNTKVDKKVEPKSCDKTHTCPPCPAIELLTGPSVFLFPPKPKDTLMISRTPEVTCVVVDVSDEDPEVKFNWYVDGVEVHNAKTKPREEQYNSTYRVVSVLTVLHQDWLNGKEYKCKVSNKALPKPIEKTISKAKGQPREPQVYTLPPSREEMTKNQVSLTCLVKGFYPSDIAVEWESNGQPENNYKTTPPVLDSDGSFFLYSKLTVDKSRWQQGNVFSCSVMHEALHNHYTQKSLSLSP
light: DIVMTQSPATLSLSPGERATLSCTSSQSVYHANWLSWFQQKPGQPPKLLIYWASTLAYGVPSRFSGSGSGTDFTLTISSLQPEDAATYYCAGGYGGGRYAFGQGTKVEIKRTVAAPSVFIFPPSDEQLKSGTASVVCLLNNFYPREAKVQWKVDNALQSGNSQESVTEQDSKDSTYSLSSTLTLSKADYEKHKVYACEVTHQGLSSPVTKSFNRGEC
notes: copies: 2 + 2
As to B3, the “KD fold (SG1 = 1)” value in test [1] was determined as 7.8 fold; in test [2], 11.2 fold.

B4: M103205H795-MY446/M103202L889-SK1 (antibody, human IgG1, kappa)
heavy: QVTLKESGPVLVKPTETLTLTCTVSGIDLSHDDISWVRQAPGKGLEWVGIISYAGSTYYASWAKGRLTISKDTSKNQVVLTMTNMDPVDTATYYCARGVPAYSHGGDLWGQGTLVTVSSASTKGPSVFPLAPSSKSTSGGTAALGCLVKDYFPEPVTVSWNSGALTSGVHTFPAVLQSSGLYSLSSVVTVPSSSLGTQTYICNVNHKPSNTKVDKKVEPKSCDKTHTCPPCPAHELLTGPSVFLFPPKPKDTLMISRTPEVTCVVVDVSDEDPEVKFNWYVDGVEVHNAKTKPREEQYNSTYRVVSVLTVLHQDWLNGKEYKCKVSNKALPKPIEKTISKAKGQPREPQVYTLPPSREEMTKNQVSLTCLVKGFYPSDIAVEWESNGQPENNYKTTPPVLDSDGSFFLYSKLTVDKSRWQQGNVFSCSVMHEALHNHYTQKSLSLSP
light: DIVMTQSPATLSLSPGERATLSCTSSQSVYHANWLSWFQQKPGQPPKLLIYWASTLAYGVPSRFSGSGSGTDFTLTISSLQPEDAATYYCAGGYGGGRYAFGQGTKVEIKRTVAAPSVFIFPPSDEQLKSGTASVVCLLNNFYPREAKVQWKVDNALQSGNSQESVTEQDSKDSTYSLSSTLTLSKADYEKHKVYACEVTHQGLSSPVTKSFNRGEC
notes: copies: 2 + 2
In the case of B4, the “KD fold (SG1 = 1)” value in test [1] is 2.6 fold; in test [2], 2.3 fold.

B5: M103205H795-MY444/M103202L889-SK1 (antibody, human IgG1, kappa)
heavy: QVTLKESGPVLVKPTETLTLTCTVSGIDLSHDDISWVRQAPGKGLEWVGIISYAGSTYYASWAKGRLTISKDTSKNQVVLTMTNMDPVDTATYYCARGVPAYSHGGDLWGQGTLVTVSSASTKGPSVFPLAPSSKSTSGGTAALGCLVKDYFPEPVTVSWNSGALTSGVHTFPAVLQSSGLYSLSSVVTVPSSSLGTQTYICNVNHKPSNTKVDKKVEPKSCDKTHTCPPCPAFELLTGPSVFLFPPKPKDTLMISRTPEVTCVVVDVSDEDPEVKFNWYVDGVEVHNAKTKPREEQYNSTYRVVSVLTVLHQDWLNGKEYKCKVSNKALPKPIEKTISKAKGQPREPQVYTLPPSREEMTKNQVSLTCLVKGFYPSDIAVEWESNGQPENNYKTTPPVLDSDGSFFLYSKLTVDKSRWQQGNVFSCSVMHEALHNHYTQKSLSLSP
light: DIVMTQSPATLSLSPGERATLSCTSSQSVYHANWLSWFQQKPGQPPKLLIYWASTLAYGVPSRFSGSGSGTDFTLTISSLQPEDAATYYCAGGYGGGRYAFGQGTKVEIKRTVAAPSVFIFPPSDEQLKSGTASVVCLLNNFYPREAKVQWKVDNALQSGNSQESVTEQDSKDSTYSLSSTLTLSKADYEKHKVYACEVTHQGLSSPVTKSFNRGEC
notes: copies: 2 + 2
Consider B5, for which the “KD fold (SG1 = 1)” value in test [1] turned out to be 6 fold; in test [2], 7.9 fold.

B6: M103205H795-MY445/M103202L889-SK1 (antibody, human IgG1, kappa)
heavy: QVTLKESGPVLVKPTETLTLTCTVSGIDLSHDDISWVRQAPGKGLEWVGIISYAGSTYYASWAKGRLTISKDTSKNQVVLTMTNMDPVDTATYYCARGVPAYSHGGDLWGQGTLVTVSSASTKGPSVFPLAPSSKSTSGGTAALGCLVKDYFPEPVTVSWNSGALTSGVHTFPAVLQSSGLYSLSSVVTVPSSSLGTQTYICNVNHKPSNTKVDKKVEPKSCDKTHTCPPCPAGELLTGPSVFLFPPKPKDTLMISRTPEVTCVVVDVSDEDPEVKFNWYVDGVEVHNAKTKPREEQYNSTYRVVSVLTVLHQDWLNGKEYKCKVSNKALPKPIEKTISKAKGQPREPQVYTLPPSREEMTKNQVSLTCLVKGFYPSDIAVEWESNGQPENNYKTTPPVLDSDGSFFLYSKLTVDKSRWQQGNVFSCSVMHEALHNHYTQKSLSLSP
light: DIVMTQSPATLSLSPGERATLSCTSSQSVYHANWLSWFQQKPGQPPKLLIYWASTLAYGVPSRFSGSGSGTDFTLTISSLQPEDAATYYCAGGYGGGRYAFGQGTKVEIKRTVAAPSVFIFPPSDEQLKSGTASVVCLLNNFYPREAKVQWKVDNALQSGNSQESVTEQDSKDSTYSLSSTLTLSKADYEKHKVYACEVTHQGLSSPVTKSFNRGEC
notes: copies: 2 + 2
As to B6, the “KD fold (SG1 = 1)” value turned out to be 1.9 fold in test [1] and 1 fold in test [2].

B7: M103205H795-MY460/M103202L889-SK1 (antibody, human IgG1, kappa)
heavy: QVTLKESGPVLVKPTETLTLTCTVSGIDLSHDDISWVRQAPGKGLEWVGIISYAGSTYYASWAKGRLTISKDTSKNQVVLTMTNMDPVDTATYYCARGVPAYSHGGDLWGQGTLVTVSSASTKGPSVFPLAPSSKSTSGGTAALGCLVKDYFPEPVTVSWNSGALTSGVHTFPAVLQSSGLYSLSSVVTVPSSSLGTQTYICNVNHKPSNTKVDKKVEPKSCDKTHTCPPCPEPELLTGPSVFLFPPKPKDTLMISRTPEVTCVVVDVSDEDPEVKFNWYVDGVEVHNAKTKPREEQYNSTYRVVSVLTVLHQDWLNGKEYKCKVSNKALPKPIEKTISKAKGQPREPQVYTLPPSREEMTKNQVSLTCLVKGFYPSDIAVEWESNGQPENNYKTTPPVLDSDGSFFLYSKLTVDKSRWQQGNVFSCSVMHEALHNHYTQKSLSLSP
light: DIVMTQSPATLSLSPGERATLSCTSSQSVYHANWLSWFQQKPGQPPKLLIYWASTLAYGVPSRFSGSGSGTDFTLTISSLQPEDAATYYCAGGYGGGRYAFGQGTKVEIKRTVAAPSVFIFPPSDEQLKSGTASVVCLLNNFYPREAKVQWKVDNALQSGNSQESVTEQDSKDSTYSLSSTLTLSKADYEKHKVYACEVTHQGLSSPVTKSFNRGEC
notes: copies: 2 + 2
Regarding B7, the entries for the “KD fold (SG1 = 1)” value in test [1] and in test [2] were 2.3 fold and 2 fold, respectively.

B8: M103205H795-MY448/M103202L889-SK1 (antibody, human IgG1, kappa)
heavy: QVTLKESGPVLVKPTETLTLTCTVSGIDLSHDDISWVRQAPGKGLEWVGIISYAGSTYYASWAKGRLTISKDTSKNQVVLTMTNMDPVDTATYYCARGVPAYSHGGDLWGQGTLVTVSSASTKGPSVFPLAPSSKSTSGGTAALGCLVKDYFPEPVTVSWNSGALTSGVHTFPAVLQSSGLYSLSSVVTVPSSSLGTQTYICNVNHKPSNTKVDKKVEPKSCDKTHTCPPCPAKELLTGPSVFLFPPKPKDTLMISRTPEVTCVVVDVSDEDPEVKFNWYVDGVEVHNAKTKPREEQYNSTYRVVSVLTVLHQDWLNGKEYKCKVSNKALPKPIEKTISKAKGQPREPQVYTLPPSREEMTKNQVSLTCLVKGFYPSDIAVEWESNGQPENNYKTTPPVLDSDGSFFLYSKLTVDKSRWQQGNVFSCSVMHEALHNHYTQKSLSLSP
light: DIVMTQSPATLSLSPGERATLSCTSSQSVYHANWLSWFQQKPGQPPKLLIYWASTLAYGVPSRFSGSGSGTDFTLTISSLQPEDAATYYCAGGYGGGRYAFGQGTKVEIKRTVAAPSVFIFPPSDEQLKSGTASVVCLLNNFYPREAKVQWKVDNALQSGNSQESVTEQDSKDSTYSLSSTLTLSKADYEKHKVYACEVTHQGLSSPVTKSFNRGEC
notes: copies: 2 + 2
B8: the “KD fold (SG1 = 1)” value in test [1] was 0.6 fold; in test [2], 0.5 fold.
